Experimental data reported in US20170137467A1 (CHROMOTEK, published 2017).
Changes are numbered by the printed parent chain. Each block holds one binder with its values, some of them ahead of it. Square brackets hold non-standard residues; d marks the D form. GABA = NCCCC(=O)O

Experiments:
Assay in all cases: positional peptide library pulldown on immobilised Nb, LC-MS of supernatant; signal ratio to control GFP-Nb (1 = not captured, near 0 = captured)
[1] = target: T1, BC2T Q11K
T1 construct: positional scanning library member
T1 peptide: Ac-PDRKAAVSHWKQ-NH2
Outline: (§1)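 Unbound peptide left in supernatant after 1 h pulldown in PBS/0.01% CHAPS measured by reversed-phase LC-MS (8–30% eluent B gradient, 20 min).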

[2] = target: T2, BC2T H9(I/L1) (N-terminal acetyl; C-terminal amide)
T2 construct: positional scanning library member; I or L not resolved
Outline: as §1

[3] = target: T3, BC2T Q11S
T3 construct: positional scanning library member
T3 peptide: Ac-PDRKAAVSHWSQ-NH2
Outline: as §1

[4] = target: T4, BC2T W10(I/L1) (N-terminal acetyl; C-terminal amide)
T4 construct: positional scanning library member; I or L not resolved
Outline: as §1

[5] = target: T5, BC2T S8W
T5 construct: positional scanning library member
T5 peptide: Ac-PDRKAAVWHWQQ-NH2
Outline: as §1

[6] = target: T6, BC2T W10R
T6 construct: positional scanning library member
T6 peptide: Ac-PDRKAAVSHRQQ-NH2
Outline: as §1

[7] = target: T7, BC2T H9G
T7 construct: positional scanning library member
T7 peptide: Ac-PDRKAAVSGWQQ-NH2
Outline: as §1

[8] = target: T8, BC2T Q11A
T8 construct: positional scanning library member
T8 peptide: Ac-PDRKAAVSHWAQ-NH2
Outline: as §1

[9] = target: T9, BC2T H9C(Abu) (SMILES …)
T9 construct: positional scanning library member
T9 peptide: Ac-PDRKAAVS[GABA]WQQ-NH2
Outline: as §1

[10] = target: T10, BC2T Q11R
T10 construct: positional scanning library member
T10 peptide: Ac-PDRKAAVSHWRQ-NH2
Outline: as §1

[11] = target: T11, BC2T Q12K
T11 construct: positional scanning library member
T11 peptide: Ac-PDRKAAVSHWQK-NH2
Outline: as §1

[12] = target: T12, BC2T H9T
T12 construct: positional scanning library member
T12 peptide: Ac-PDRKAAVSTWQQ-NH2
Outline: as §1

[13] = target: T13, BC2T W10(I/L2) (N-terminal acetyl; C-terminal amide)
T13 construct: positional scanning library member; I or L not resolved
Outline: as §1

[14] = target: T14, BC2T Q12P
T14 construct: positional scanning library member
T14 peptide: Ac-PDRKAAVSHWQP-NH2
Outline: as §1

[15] = target: T15, BC2T S8V
T15 construct: positional scanning library member
T15 peptide: Ac-PDRKAAVVHWQQ-NH2
Outline: as §1

[16] = target: T16, BC2T H9P
T16 construct: positional scanning library member
T16 peptide: Ac-PDRKAAVSPWQQ-NH2
Outline: as §1

[17] = target: T17, BC2T H9R
T17 construct: positional scanning library member
T17 peptide: Ac-PDRKAAVSRWQQ-NH2
Outline: as §1

[18] = target: T18, BC2T S8M
T18 construct: positional scanning library member
T18 peptide: Ac-PDRKAAVMHWQQ-NH2
Outline: as §1

[19] = target: T19, BC2T W10S
T19 construct: positional scanning library member
T19 peptide: Ac-PDRKAAVSHSQQ-NH2
Outline: as §1

[20] = target: T20, BC2T W10M
T20 construct: positional scanning library member
T20 peptide: Ac-PDRKAAVSHMQQ-NH2
Outline: as §1

[21] = target: T21, BC2T H9S
T21 construct: positional scanning library member
T21 peptide: Ac-PDRKAAVSSWQQ-NH2
Outline: as §1

B1: BC2 nanobody (VHH)
VHH: QVQLVESGGGLVQPGGSLTLSCTASGFTLDHYDIGWFRQAPGKEREGVSCINNSDDDTYYADSVKGRFTIFMDNAKDTVYLQMNSLKPEDTAIYYCAEARGCKRGRYEYDFWGQGTQVTVSS
notes: immobilised on beads in this assay; also called BC2-Nb; BC2 nanotrap (immobilised)
ratio [1]: 0
ratio [2]: 0.3
ratio [3]: 0.1
ratio [4]: 1
ratio [5]: 0.6
ratio [6]: 1
ratio [7]: 0.4
ratio [8]: 0.1
ratio [9]: 0.2
ratio [10]: 0
ratio [11]: 0
ratio [12]: 0.2
ratio [13]: 1
ratio [14]: 0.1
ratio [15]: 0.1
ratio [16]: 0.8
ratio [17]: 0.1
ratio [18]: 0.6
ratio [19]: 1.1
ratio [20]: 1
ratio [21]: 0.2

ratio [1]: 0.1
ratio [2]: 0.5
ratio [3]: 0.2
ratio [4]: 1.1
ratio [5]: 0.9
ratio [6]: 1.1
ratio [7]: 0.8
ratio [8]: 0.4
ratio [9]: 0.5
ratio [10]: 0.1
ratio [11]: 0.1
ratio [12]: 0.5
ratio [13]: 1.1
ratio [14]: 0.2
ratio [15]: 0.3
ratio [16]: 1
ratio [17]: 0.2
ratio [18]: 1
ratio [19]: 1.1
ratio [20]: 1.1
ratio [21]: 0.5
B2: BC2-NbR106S (VHH)
VHH: B1 VHH with R106S
notes: headlock mutant of BC2-Nb; immobilised on beads in this assay
